Values quoted from earlier work as cited in publication PMC2774623.

Biological target: CK2 alpha (Homo sapiens) (UniProt P68400)
Assay: SPR

Sequence of CK2 alpha (Homo sapiens) (P68400 whole entry): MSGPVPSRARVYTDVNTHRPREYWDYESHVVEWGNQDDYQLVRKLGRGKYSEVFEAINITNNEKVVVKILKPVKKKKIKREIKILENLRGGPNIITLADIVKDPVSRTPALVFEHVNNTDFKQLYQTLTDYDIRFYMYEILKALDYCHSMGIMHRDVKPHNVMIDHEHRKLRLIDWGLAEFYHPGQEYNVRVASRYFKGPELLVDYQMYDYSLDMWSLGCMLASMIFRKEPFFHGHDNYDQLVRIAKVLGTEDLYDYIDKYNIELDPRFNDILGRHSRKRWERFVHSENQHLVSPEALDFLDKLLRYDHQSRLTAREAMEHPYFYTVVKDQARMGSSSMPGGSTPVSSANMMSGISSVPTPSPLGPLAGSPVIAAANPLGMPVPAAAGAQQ
Sequence of CK2 beta (P67870 2-215): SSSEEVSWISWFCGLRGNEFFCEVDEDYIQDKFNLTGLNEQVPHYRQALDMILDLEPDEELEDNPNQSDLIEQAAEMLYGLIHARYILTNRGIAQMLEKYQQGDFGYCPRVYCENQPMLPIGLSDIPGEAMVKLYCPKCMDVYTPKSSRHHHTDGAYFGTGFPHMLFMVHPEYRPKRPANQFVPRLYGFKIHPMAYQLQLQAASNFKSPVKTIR

Kd: 40.8 nM
Substance: CK2 beta (from UniProt P67870)
